# Measured values published in the supplement of paper PMC7877785.
# ± gives the uncertainty stated by the source.
# Assay: self-splicing fitness, log relative to wild type (ln ratio); higher = more splicing; Tetrahymena group I intron in knt gene, E. coli kanamycin selection, DiMSum; sequences stand for … in CUCUCU…GGAGGGAAAAGUUAUCAGGCAUGCACCUGGUAGCUAGUCUUUAAACCAAUAGAUUGCAUCGGUUUAAAAGGCAAGACCGUCAAAUUGCGGGAAAGGGGUCAACAGCCGUUCAGUACCAAGUCUCAGGGGAAACUUUGAGAUGGCCUUGCAAAGGGUAUGGUAAUAAGCUGACGGACAUGGUCCUAACCACGCAGCCAAGUCCUAAGUCAACAGAUCUUCUGUUGAUAUGGAUGCAGUUCACAGACUAAAUGUCGGUCGGGGAAGAUGUAUUCUUCUCAUAAGAUAUAGUCGGACCUCUCCUUAAUGGGAGCUAGCGGAUGAAGUGAUGCAACACUGGAGCCGCUGGGAACUAAUUUGUAUGCGAAAGUAUAUUGAUUAGUUUUGGAGUACUCGUGGUCG
# Outline: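 Pooled colonies went to amplicon sequencing on an Illumina HiSeq 2500 after six replicate transformations. The plates were LB agar with 100 μg/mL carbenicillin, 50 μM IPTG and 0.2% rhamnose, with or without 25 μg/mL kanamycin, incubated overnight at 37°C or 30°C. The E. coli BL21(DE3) library had all eight P1ex-region intron nucleotides randomised, the intron placed in the knt kanamycin-resistance gene on pET-22b(+). DiMSum fitness is the error-weighted combination of replicate fold changes, kanamycin against none, normalised to wild type.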
Sequence,self-splicing fitness (ln) (30 °C),self-splicing fitness (ln) (37 °C)
AUUAAGCAAUAUUACGUGGC,-2.43 ± 0.15,-1.71 ± 0.16
AUUAAGCAAUAUUACGUGUU,-2.6 ± 0.11,-0.83 ± 0.098
AUUAAGCAAUAUUACGUUCC,-3.07 ± 0.29,-0.839 ± 0.27
AUUCAGCAAUAUUACGAAAU,-1 ± 0.091,-0.557 ± 0.1
AUUCAGCAAUAUUACGACCA,-0.206 ± 0.26,0.501 ± 0.29
AUUCAGCAAUAUUACGAUCU,-0.272 ± 0.057,0.457 ± 0.078
AUUCAGCAAUAUUACGCACU,-0.181 ± 0.062,0.535 ± 0.086
AUUCAGCAAUAUUACGCAUA,-0.701 ± 0.15,-1.07 ± 0.14
AUUCAGCAAUAUUACGCCAA,-2.22 ± 0.29,-1.19 ± 0.27
AUUCAGCAAUAUUACGCCUU,-0.723 ± 0.079,-0.133 ± 0.096
AUUCAGCAAUAUUACGCGGU,-3 ± 0.14,-2.21 ± 0.15
AUUCAGCAAUAUUACGCUAA,-0.96 ± 0.094,-0.0329 ± 0.1
AUUCAGCAAUAUUACGGAUG,-0.985 ± 0.079,-0.448 ± 0.097
AUUCAGCAAUAUUACGGCCC,-0.851 ± 0.16,-0.422 ± 0.21
AUUCAGCAAUAUUACGGGAA,-1.36 ± 0.12,-0.871 ± 0.13
AUUCAGCAAUAUUACGUAUU,-0.474 ± 0.065,-0.558 ± 0.092
AUUCAGCAAUAUUACGUGCC,-1.51 ± 0.1,-0.682 ± 0.14
AUUCAGCAAUAUUACGUGUG,-1.9 ± 0.062,-0.699 ± 0.067
AUUGAGCAAUAUUACGAAAA,-2.45 ± 0.41,
AUUGAGCAAUAUUACGAAGG,-2.69 ± 0.36,-2.39 ± 0.3
AUUGAGCAAUAUUACGACGA,-3.19 ± 0.4,-0.517 ± 0.22

Sequence,self-splicing fitness (ln) (30 °C),self-splicing fitness (ln) (37 °C)
AUUGAGCAAUAUUACGAGAC,,-0.883 ± 0.45
AUUGAGCAAUAUUACGAGGU,-3.14 ± 0.36,-2.02 ± 0.36
AUUGAGCAAUAUUACGCAAC,-3.42 ± 0.26,-2.26 ± 0.39
AUUGAGCAAUAUUACGCAAU,-3.28 ± 0.26,-2.07 ± 0.21
AUUGAGCAAUAUUACGCACU,-0.165 ± 0.14,-0.756 ± 0.15
AUUGAGCAAUAUUACGCCGC,-2.67 ± 0.49,
AUUGAGCAAUAUUACGCCGU,,-2.56 ± 0.49
AUUGAGCAAUAUUACGCGAU,-3.68 ± 0.32,-2.33 ± 0.34
AUUGAGCAAUAUUACGCGGA,-4.15 ± 0.35,-2.2 ± 0.14
AUUGAGCAAUAUUACGCGUA,,-1.87 ± 0.31
AUUGAGCAAUAUUACGCUGU,-1.97 ± 0.25,
AUUGAGCAAUAUUACGCUUA,-2.75 ± 0.16,-1.02 ± 0.13
AUUGAGCAAUAUUACGGAAC,-3.09 ± 0.23,
AUUGAGCAAUAUUACGGAAG,,-2.63 ± 0.32
AUUGAGCAAUAUUACGGAGG,-2.97 ± 0.22,
AUUGAGCAAUAUUACGGAUU,-2.96 ± 0.23,-1.64 ± 0.23
AUUGAGCAAUAUUACGGCCA,-2.29 ± 0.18,-0.921 ± 0.18
AUUGAGCAAUAUUACGGGGC,-3.06 ± 0.26,-3.09 ± 0.3
AUUGAGCAAUAUUACGGGUG,-4.2 ± 0.28,-2.2 ± 0.3
AUUGAGCAAUAUUACGUACA,-3.85 ± 0.27,-1.87 ± 0.16
